Results taken from paper PMC11336063.

Target: N-terminal domain of eIF2α (eIF2α-NTD), amino acids 2–187 (UniProt P05198)
Sequence of UniProt P05198 (P05198 2-187): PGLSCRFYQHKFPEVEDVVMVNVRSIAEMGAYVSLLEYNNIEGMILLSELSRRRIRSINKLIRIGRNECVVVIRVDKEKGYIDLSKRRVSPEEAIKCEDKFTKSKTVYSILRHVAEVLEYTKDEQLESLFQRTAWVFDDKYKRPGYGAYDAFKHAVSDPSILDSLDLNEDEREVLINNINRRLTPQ

eIF2α-S51 phosphorylation of eIF2α-NTD (1 μM) by immunopurified GCN2 variant in the in vitro kinase assay, percent [%]	Substance
27.2	human GCN2 G1109R variant, 3xFLAG tagged (from UniProt Q9P2K8 1-1649) (enzyme)
12.9	human GCN2 P1115L variant, 3xFLAG tagged (from UniProt Q9P2K8 1-1649) (enzyme)
